Test results taken from patent publication US20240325526A1.

B1: hCASP1_RV2_D108A (protein)
chain: MGNLSLPTTEEFEDDAIKKAHIEKDFIAFCSSTPDNVSWRHPTMGSVFIGRLIEHMQEYACSCDVEEIFRKVRFSFEQPDGRAQMPTTERVTLTRCFYLFPGHAYVHAAPVRDQTSGNYLNMQDSQGVLSSFPAPQAVQDNPAMPTSSGSEGNVKLCSLEEAQRIWKQKSAEIYPIMDKSSRTRLALIICNEEFDSIPRRTGAEVDITGMTMLLQNLGYSVDVKKNLTASDMTTELEAFAHRPEHKTSDSTFLVFMSHGIREGICGKKHSEQVPDILQLNAIFNMLNTKNCPSLKDKPKVIIIQACRGDSPGVVWFKD
B2: hCASP1_RV2_D140A (protein)
chain: MGNLSLPTTEEFEDDAIKKAHIEKDFIAFCSSTPDNVSWRHPTMGSVFIGRLIEHMQEYACSCDVEEIFRKVRFSFEQPDGRAQMPTTERVTLTRCFYLFPGHAYVHDAPVRDQTSGNYLNMQDSQGVLSSFPAPQAVQANPAMPTSSGSEGNVKLCSLEEAQRIWKQKSAEIYPIMDKSSRTRLALIICNEEFDSIPRRTGAEVDITGMTMLLQNLGYSVDVKKNLTASDMTTELEAFAHRPEHKTSDSTFLVFMSHGIREGICGKKHSEQVPDILQLNAIFNMLNTKNCPSLKDKPKVIIIQACRGDSPGVVWFKD
B3: hCASP1_RV2_D124A (protein)
chain: MGNLSLPTTEEFEDDAIKKAHIEKDFIAFCSSTPDNVSWRHPTMGSVFIGRLIEHMQEYACSCDVEEIFRKVRFSFEQPDGRAQMPTTERVTLTRCFYLFPGHAYVHDAPVRDQTSGNYLNMQASQGVLSSFPAPQAVQDNPAMPTSSGSEGNVKLCSLEEAQRIWKQKSAEIYPIMDKSSRTRLALIICNEEFDSIPRRTGAEVDITGMTMLLQNLGYSVDVKKNLTASDMTTELEAFAHRPEHKTSDSTFLVFMSHGIREGICGKKHSEQVPDILQLNAIFNMLNTKNCPSLKDKPKVIIIQACRGDSPGVVWFKD
B4: CASP1_RV2_D143A (protein)
chain: MSEEDFLTDAIFEDDGIKKAHIEKDFIAFCSSTPDNVSWRHPVRGSLFIESLIKHMKEYAWSCDLEDIFRKVRFSFEQPEFRLQMPTADRVTLTKRFYLFPGHLLVCDVPIRAPSAETFVATEDSKGGHPSSSETKEEQNKEAGTFPGLTGTLKFCPLEKAQKLWKENPSEIYPIMNTTTRTRLALIICNTEFQHLSPRVGAQVDLREMKLLLEDLGYTVKVKENLTALEMVKEVKEFAACPEHKTSDSTFLVFMSHGIQEGICGTTYSNEVSDILKVDTIFQMMNTLKCPSLKDKPKVIIIQACRGEKQGVVLLKD
B5: CASP1_RV2_D124A (protein)
chain: MSEEDFLTDAIFEDDGIKKAHIEKDFIAFCSSTPDNVSWRHPVRGSLFIESLIKHMKEYAWSCDLEDIFRKVRFSFEQPEFRLQMPTADRVTLTKRFYLFPGHLLVCDVPIRAPSAETFVATEASKGGHPSSSETKEEQNKEDGTFPGLTGTLKFCPLEKAQKLWKENPSEIYPIMNTTTRTRLALIICNTEFQHLSPRVGAQVDLREMKLLLEDLGYTVKVKENLTALEMVKEVKEFAACPEHKTSDSTFLVFMSHGIQEGICGTTYSNEVSDILKVDTIFQMMNTLKCPSLKDKPKVIIIQACRGEKQGVVLLKD
B6: CASP1_RV2_D108A (protein)
chain: MSEEDFLTDAIFEDDGIKKAHIEKDFIAFCSSTPDNVSWRHPVRGSLFIESLIKHMKEYAWSCDLEDIFRKVRFSFEQPEFRLQMPTADRVTLTKRFYLFPGHLLVCAVPIRAPSAETFVATEDSKGGHPSSSETKEEQNKEDGTFPGLTGTLKFCPLEKAQKLWKENPSEIYPIMNTTTRTRLALIICNTEFQHLSPRVGAQVDLREMKLLLEDLGYTVKVKENLTALEMVKEVKEFAACPEHKTSDSTFLVFMSHGIQEGICGTTYSNEVSDILKVDTIFQMMNTLKCPSLKDKPKVIIIQACRGEKQGVVLLKD
B7: CASP1_RV2_D108A_D124A_D143A (protein)
chain: MSEEDFLTDAIFEDDGIKKAHIEKDFIAFCSSTPDNVSWRHPVRGSLFIESLIKHMKEYAWSCDLEDIFRKVRFSFEQPEFRLQMPTADRVTLTKRFYLFPGHLLVCAVPIRAPSAETFVATEASKGGHPSSSETKEEQNKEAGTFPGLTGTLKFCPLEKAQKLWKENPSEIYPIMNTTTRTRLALIICNTEFQHLSPRVGAQVDLREMKLLLEDLGYTVKVKENLTALEMVKEVKEFAACPEHKTSDSTFLVFMSHGIQEGICGTTYSNEVSDILKVDTIFQMMNTLKCPSLKDKPKVIIIQACRGEKQGVVLLKD

How the values were obtained:
[1] = target: IL1B_FL (Mus musculus wild-type pro-IL1β) (Mus musculus) (UniProt P10749); test: cell-based or functional assay
[2] = target: hIL1B_FL (human wild-type pro-IL1β)
[3] = target: T1, IL1B_FL (Mus musculus wild-type pro-IL1β)
T1 chain: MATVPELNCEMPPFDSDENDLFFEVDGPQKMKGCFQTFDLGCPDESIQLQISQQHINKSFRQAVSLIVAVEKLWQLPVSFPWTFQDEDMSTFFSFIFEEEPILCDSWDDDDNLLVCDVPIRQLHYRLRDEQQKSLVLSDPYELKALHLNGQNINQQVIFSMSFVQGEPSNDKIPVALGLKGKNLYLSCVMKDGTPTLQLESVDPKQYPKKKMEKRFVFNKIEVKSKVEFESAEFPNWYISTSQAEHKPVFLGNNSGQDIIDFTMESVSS

| Molecule | ability to process pro-IL1β (data not shown) [2] | ability to process pro-IL1β (data not shown) [3] | other results |
| --- | --- | --- | --- |
| CASP1_RV2 (constitutively active murine caspase-1, p10 and p20 domain reversal, N-terminal p20 remnant removed) (from UniProt P29452 92-296) (enzyme) |  |  | potency against CASP1 WT; IL-1β and LDH activity in supernatants of B16-F10 cells co-transfected with pro-IL1β plasmid [1]: 30 fold |
| B1 | did not significantly affect their ability to process pro-IL1β |  |  |
| B2 | did not significantly affect their ability to process pro-IL1β |  |  |
| B3 | did not significantly affect their ability to process pro-IL1β |  |  |
| B4 |  | did not significantly affect their ability to process pro-IL1β |  |
| B5 |  | did not significantly affect their ability to process pro-IL1β |  |
| B6 |  | did not significantly affect their ability to process pro-IL1β |  |
| B7 |  | did not significantly affect their ability to process pro-IL1β |  |
